# Laboratory results: the supplement of paper PMC9112550, “Optimization of the antimicrobial peptide Bac7 by deep mutational scanning” (BMC Biology, 2022)
# Test system: Escherichia coli TOP10
# Experiment: shrunken log2 fold change of peptide-encoding DNA abundance (4.5 h post-induction vs induction); higher = less antimicrobial activity (less host growth inhibition)
# Details: time post-induction: 4.5 h; library: site-saturation at positions 5, 18, 19, 20
# 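Also: peptides expressed intracellularly from a pBAD plasmid library in pooled LB shake-flask culture, induced with 0.3% L-arabinose, DNA abundance read by NGS, three biological replicates, DESeq2 with apeglm shrinkage.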
row,Sequence,shrunken log2 fold change
1,RRIRVRPPRLPRPRPRPPVCPRP,0.191
2,RRIRWRPPRLPRPRPRPMYNPRP,-0.387
3,RRIRPRPPRLPRPRPRPMEEPRP,-0.0433
4,RRIRRRPPRLPRPRPRPFCSPRP,-0.0439
5,RRIRNRPPRLPRPRPRPPLVPRP,0.089
6,RRIRKRPPRLPRPRPRPMMKPRP,1.05
7,RRIRKRPPRLPRPRPRPIKWPRP,0.00487
8,RRIRMRPPRLPRPRPRPLPTPRP,1.36
9,RRIRIRPPRLPRPRPRPSWLPRP,-0.373
10,RRIRYRPPRLPRPRPRPTHCPRP,0.0602
11,RRIRFRPPRLPRPRPRPFITPRP,-0.918
12,RRIRRRPPRLPRPRPRPPTVPRP,0.24
13,RRIRARPPRLPRPRPRPSWFPRP,0.156
14,RRIRSRPPRLPRPRPRPTTFPRP,-0.272
15,RRIRTRPPRLPRPRPRPAERPRP,-0.104
16,RRIRERPPRLPRPRPRPECLPRP,-0.137
17,RRIRARPPRLPRPRPRPCCSPRP,0.0121
18,RRIRERPPRLPRPRPRPFGSPRP,0.0942
19,RRIRPRPPRLPRPRPRPKCIPRP,-1.04
20,RRIRTRPPRLPRPRPRPWVPPRP,0.252
21,RRIRHRPPRLPRPRPRPSRWPRP,0.102
22,RRIRDRPPRLPRPRPRPVIHPRP,0.0491
23,RRIRARPPRLPRPRPRPIHIPRP,-0.24
24,RRIRKRPPRLPRPRPRPVHLPRP,-0.0295
25,RRIRGRPPRLPRPRPRPFWMPRP,0.103

row,Sequence,shrunken log2 fold change
1,RRIRHRPPRLPRPRPRPMIEPRP,0.0253
2,RRIRKRPPRLPRPRPRPKYDPRP,0.38
3,RRIRHRPPRLPRPRPRPGWCPRP,0.399
4,RRIRNRPPRLPRPRPRPFQWPRP,-0.212
5,RRIRDRPPRLPRPRPRPYLKPRP,-0.443
6,RRIRIRPPRLPRPRPRPYNQPRP,-1.01
7,RRIRRRPPRLPRPRPRPCSTPRP,0.0875
8,RRIRHRPPRLPRPRPRPAYMPRP,0.0834
9,RRIRCRPPRLPRPRPRPNDGPRP,-0.00783
10,RRIRKRPPRLPRPRPRPQWGPRP,0.227
11,RRIRSRPPRLPRPRPRPNPEPRP,0.0679
12,RRIRSRPPRLPRPRPRPFHIPRP,-1.07
13,RRIRKRPPRLPRPRPRPFWLPRP,0.341
14,RRIRRRPPRLPRPRPRPHVVPRP,0.0538
15,RRIRCRPPRLPRPRPRPPQSPRP,0.839
16,RRIRRRPPRLPRPRPRPYGKPRP,-0.813
17,RRIRRRPPRLPRPRPRPFQCPRP,-0.00197
18,RRIRCRPPRLPRPRPRPENEPRP,0.113
19,RRIRERPPRLPRPRPRPCFLPRP,-0.647
20,RRIRFRPPRLPRPRPRPWIGPRP,-0.398
21,RRIRYRPPRLPRPRPRPPTEPRP,0.183
22,RRIRQRPPRLPRPRPRPHVVPRP,-0.086
23,RRIRSRPPRLPRPRPRPQCGPRP,-0.129
24,RRIRQRPPRLPRPRPRPMCTPRP,-0.173
25,RRIRKRPPRLPRPRPRPSIWPRP,-0.0618

row,Sequence,shrunken log2 fold change
1,RRIRTRPPRLPRPRPRPDDEPRP,0.0101
2,RRIRWRPPRLPRPRPRPWPKPRP,0.322
3,RRIRGRPPRLPRPRPRPPYMPRP,-0.0678
4,RRIRKRPPRLPRPRPRPDWTPRP,1.54
5,RRIRWRPPRLPRPRPRPMVAPRP,0.457
6,RRIRNRPPRLPRPRPRPYSRPRP,-0.00947
7,RRIRLRPPRLPRPRPRPHPMPRP,-0.173
8,RRIRKRPPRLPRPRPRPHMLPRP,-0.105
9,RRIRARPPRLPRPRPRPRGAPRP,0.961
10,RRIRGRPPRLPRPRPRPQCQPRP,0.316
11,RRIRKRPPRLPRPRPRPACVPRP,0.735
12,RRIRTRPPRLPRPRPRPISVPRP,-0.0512
13,RRIRHRPPRLPRPRPRPIFGPRP,-0.0177
14,RRIRHRPPRLPRPRPRPCFWPRP,-0.0857
15,RRIRGRPPRLPRPRPRPNWEPRP,0.21
16,RRIRMRPPRLPRPRPRPSLWPRP,1.72
17,RRIRFRPPRLPRPRPRPDVIPRP,0.0834
18,RRIRLRPPRLPRPRPRPNCAPRP,0.415
19,RRIRKRPPRLPRPRPRPSMFPRP,-0.15
20,RRIRNRPPRLPRPRPRPNSTPRP,2.34
21,RRIRIRPPRLPRPRPRPWTWPRP,-0.204
22,RRIRLRPPRLPRPRPRPWYAPRP,-0.171
23,RRIRWRPPRLPRPRPRPQHHPRP,-0.475
24,RRIRRRPPRLPRPRPRPPWKPRP,0.0487
25,RRIRSRPPRLPRPRPRPKFMPRP,-0.0581
